Measurements published in US20150133630A1 (UNIVERSITY OF TOKYO, published 2015).
Bridge positions count the residues as written; N and C are the ends. Square brackets hold non-standard residues; d marks the D form. Tyr(3-NO2) = N[C@@H](Cc1ccc(O)c([N+](=O)[O-])c1)C(=O)O; Arg(NO2) = N=C(NCCC[C@H](N)C(=O)O)N[N+](=O)[O-]

What was measured:
human soluble FcRn [1] = target: T1, human soluble FcRn (human, UniProt P55899 24-297; P61769 21-119, limits assumed, chemically biotinated with NHS-biotin in the mRNA display assays; amine-coupled to the sensor chip in the Biacore assay); assay: SPR, Biacore T100, KD at pH 7.4 against KD at pH 6.0
T1 construct: also called neonatal Fc receptor
Experimental: (§1) In order to find whether a peptide alone interacts with FcRn in a pH dependent manner, the peptide 2G01D not having SGSGS on the C-terminal side of 8D-01 and amidated at the C-terminal was synthesized on a solid phase and a dissociation constant Kd binding constant was measured using Biacore T100 (GE Healthcare). FcRn was immobilized onto a sensor chip by an amine coupling method. The following is the peptide 2G01D:
(§2) On the other hand, a solid-phase synthesized peptide 2G01D was added as an analyte to a phosphate buffer having a pH 6.0 or 7.4 and a dissociation constant was measured.

human soluble FcRn [2] = target: T1, human soluble FcRn; assay: SPR, Biacore T100, FcRn amine-coupled to chip, peptide as analyte, phosphate buffer pH 6.0
Experimental: as §1, §2

human soluble FcRn [3] = target: T1, human soluble FcRn; assay: SPR, Biacore T100, FcRn amine-coupled to chip, peptide as analyte, phosphate buffer pH 7.4
Experimental: as §1, §2

T1 sequence (P55899 24-297 limits assumed, chain 1 of 2): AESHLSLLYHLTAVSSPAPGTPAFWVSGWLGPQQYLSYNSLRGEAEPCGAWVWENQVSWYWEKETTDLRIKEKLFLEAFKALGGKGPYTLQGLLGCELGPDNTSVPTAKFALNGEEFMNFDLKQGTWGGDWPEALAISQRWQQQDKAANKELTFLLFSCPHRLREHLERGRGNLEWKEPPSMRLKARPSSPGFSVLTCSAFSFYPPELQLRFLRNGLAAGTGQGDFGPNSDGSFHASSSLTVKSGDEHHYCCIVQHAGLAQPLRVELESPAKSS
T1 sequence (P61769 21-119 limits assumed, chain 2 of 2): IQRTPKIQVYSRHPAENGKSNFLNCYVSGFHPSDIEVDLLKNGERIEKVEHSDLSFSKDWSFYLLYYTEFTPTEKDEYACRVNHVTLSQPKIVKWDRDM

B1: peptide 2G01D (peptide)
peptide: {CH2CO}-[dNty]F[Tyr(3-NO2)]LYN[Arg(NO2)]GDPL[Tyr(3-NO2)]LCG-NH2
modifications: thioether N-14; not fully specified
notes: also called solid-phase synthesized peptide 2G01D
fold change in dissociation constant between pH 7.4 and pH 6.0 (human soluble FcRn [1]): ~70 times
Kd (human soluble FcRn [2]): 4.26 nM
koff (human soluble FcRn [2]): 0.00394 s⁻¹
kon (human soluble FcRn [2]): 925000 M⁻¹ s⁻¹
Kd (human soluble FcRn [3]): 293 nM
koff (human soluble FcRn [3]): 0.00955 s⁻¹
kon (human soluble FcRn [3]): 32600 M⁻¹ s⁻¹
